Reference: article PMC7092852 (Biochemical and Biophysical Research Communications, 2005)

Target: the molecule itself
Assay: SEC

B1: 2-helix protein (native single chain NHR + CHR of syncytin, amino acids 349-445) (domain or fragment)
chain: not shown
stoichiometry N: 3
